Results taken from the RNAGym collection of RNA variant scans (doi:10.1073/pnas.2313332121).

B1: TPR t1 (parent)
chain: GACCAAUCUGCCCUCAGAGCUCGAGAACAUCUUCGGAUGCAGAGGAGGCAGGCUUCGGUGGCGCGAUAGCGCCAACGUCCUCAACCUCCAAUGCAUCCCACCACAUGAUGAUGCCUGAAGAGCCUUGGUUUUUUG

Variants of: B1
Assay: polymerase ribozyme fitness, log enrichment relative to wild type (log ratio); higher = more active; in vitro selection for triplet polymerase activity
In short: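 Mutant libraries of both subunits of a heterodimeric triplet polymerase ribozyme were PCR-built, transcribed, and selected once in triplicate, with frozen incubation at −7 °C and capture of gel-excised extended constructs on streptavidin beads before RT-PCR. Illumina sequencing of input and output libraries was filtered to genotypes with ≥10 input reads and ≥1 read per output. Fitness is the logarithm of genotype enrichment over wild-type enrichment, using inverse-variance-weighted replicate averages. The logarithm is base 2.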

Row | Variant | polymerase ribozyme fitness (log ratio)
1 | A43C G45A G48C | -3.39
2 | A43G G69U C89U | -0.177
3 | G42U U55A C56G G77C C115A | -1.05
4 | A43C G69U C99U | -3.77
5 | A43G | -1.32
6 | A43C | -2.17
7 | A43U | -1.2
8 | G42U U78A U81A U112A | -3.13
9 | A43G A46U U55G | -2.46
10 | G42U U55G U125A | -1.45
11 | A43C G71U U112C G135A | -1.05
12 | A43U A66C G71U | -5.02
13 | A43G G58C C62A C85U | -6.11
14 | G42U G77U U92A U106A | -2.9
15 | A43U G47U A74U | -2.98
16 | G44A A66G U133G | -2.29
17 | A43U C49A G51C C56G G63C U106A | -7.03
18 | G42U G120A | -1.14
19 | A43G C101U A108G | -2.96
20 | A43G G63A | -3.39
21 | A43G G117U | -4.21
22 | A43C C85G | -3.37
23 | A43U C62G C82A C101A C123G | -4.38
24 | A43U C49G G135U | -3.89

Row | Variant | polymerase ribozyme fitness (log ratio)
25 | A43U C114G | -3.27
26 | A43C G63A U78C C104A G120C | -6.92
27 | G42U G48A G52C C56G G69U G127U | -3.16
28 | G42U C101U G113C | -2.52
29 | A43G G45U U59A A66U | -5.27
30 | G42U G60A G128C | -3.97
31 | G42U U92A | -2.25
32 | A43C A50G G61A C115A U116C | -4.2
33 | A43C U87A G110A | -5.45
34 | A43C G52A | -2.92
35 | G44A A68G C70G C72A G110A G122A C124A | -7.69
36 | A43C G48C G113C A119C G120U A121G | -2.55
37 | G42U C115G | -1.8
38 | G42U C115U | -1.27
39 | A43C C85A C104U G113A | -2.96
40 | G42U U59C U87A A100U | -4.01
41 | G42U G52A C72U U78A G128U | -4.36
42 | A43G C89U | -1.2
43 | A43C C49A | -3.08
44 | A43C C49G | -3.17
45 | A43C C49U | -3.72
46 | A43C G47U U112A G135A | -1.87
47 | A43U G120A | -0.64
48 | G42U G60A C101U A121G | 0.281

Row | Variant | polymerase ribozyme fitness (log ratio)
49 | A43U G61A C73A C88A G93A A121U | -2.52
50 | A43U U81A C85G | -3.37
51 | A43G A74G C89U U109G | -7.22
52 | A43U U81A C85G C124U | -4.75
53 | A43G C97U | -1.61
54 | G42U U92A A118U | -2.03
55 | G42U U78A | -2.36
56 | A43U U92C U112G | -2.71
57 | A43U C49G U54A | -2.2
58 | G42U G93C | -2.17
59 | A43C C56U C82A A91U G93U U96C C124G | -2.46
60 | A43U A74G | -1.55
61 | A43U G47U G61A C72G C97U | -2.63
62 | A43C C73A U81G C86U | -6.91
63 | A43U C56U | -1.59
64 | A43U A118U | -1.23
65 | A43G C49G C98U G120C | -3.88
66 | A43U C56U C79A | -3.22
67 | G44A A75U | -1.11
68 | A43U G48U C56G U116A | -6.74
69 | G44A A66U C76A | -4.64
70 | A43U C88G A95U | -3.19
71 | A43U G45A G58C G69U | 0.218
72 | A43G U92A | -2.96

Row | Variant | polymerase ribozyme fitness (log ratio)
73 | A43G G110C | -2.35
74 | A43U G45A C56A | -1.86
75 | A43U U54A A66U U112A | -3.74
76 | G42U U96C | -1.58
77 | A43U A50C C73U U78C C94G | -4.28
78 | A43U G113C | -3.56
79 | A43U U78C G93A | -1.95
80 | A43U C70G G117A | -6.87
81 | A43U C72A C114U G128C | -5.92
82 | A43C G44C G71C A118U U133G | -1.6
83 | G42U G47U | -1.51
84 | G42U G47C | -5.66
85 | A43C G61U C85U | -2.37
86 | A43U U92A U106A | -2.69
87 | A43G U54C A95U A121C U129A | -2.96
88 | A43G G60U U78C | -2.18
89 | A43C G47U C53U C88G C104U | -6.05
90 | G42U G44A C70A G127U | -4.25
91 | A43C C86U | -2.14
92 | G44A A66G | -1.89
93 | G42U G69U | -0.0944
94 | G42U G69C | -2.39
95 | A43U U59A A66U | -4.54
96 | A43U C76U C123G | -0.376

Row | Variant | polymerase ribozyme fitness (log ratio)
97 | A43C U87G | -2.73
98 | A43U C49U A75U G113C C123U | -3.62
99 | G42U C62A | -3.21
100 | A43U U106A A108U U112A | -2.46
101 | G42U G45A G63C | -1.98
102 | A43U C82G A119G C123U C124A | -0.662
103 | G42U C70G | -4.95
104 | G42U C62A C73U U112C U130G | -3.26
105 | A43G A50G C70A C101U | -5.22
106 | A43G G44U G48A U78C C124A | 0.343
107 | A43G A118G | -1.54
108 | G42U C94G U96C | -4.23
109 | A43G C70U | -2.76
110 | A43U G45A C53U C56G C62U A84U | -1.89
111 | G42U C82A | -1.61
112 | G42U C82U | -1.44
113 | A43U A121G | 1.17
114 | A43C G48A | -2.56
115 | G42U G77A C88A U92C | -3.21
116 | G42U C72G C99A A103C C123U | -6.66
117 | G42U G44U C53U G69U C79A G127U | -3.88
118 | A43C C72A | -2.05
119 | A43C G48C C123A | -1.93
120 | A43U G57U C86A | -2.97

Row | Variant | polymerase ribozyme fitness (log ratio)
121 | G42U G63A | -2.77
122 | G42U G63C | -2.22
123 | A43G G107U G110C A118U C124A | -7.12
124 | A43C C85G A90G C98A | -7.04
125 | A43G G63A G77C A90G G127U G135C | -3.69
126 | G42U G71A C86U U96A C97A U116G | -6.66
127 | A43U G63U | -3.68
128 | A43G C70G G110U | -5.99
129 | G44A | -0.794
130 | A43G G61U C114A G127C U132A | -3.36
131 | A43U G51U G71A C79A U112G | -6.57
132 | A43U G48U U54C C89U U112A | -0.663
133 | A43C C56A | -2.98
134 | G42U G69C C123A | -3.23
135 | G42U G77U U106A G120C | -2
136 | A43U C56A C73A U109A | -5.95
137 | G42U G60A U87A G113A | -3.78
138 | A43U C56G U67A G69U G71C A75G C101A G107C C124G | -7.81
139 | G42U U54A A91U A121C C124A | 0.144
140 | A43U C53U C72A A91U A105G U106A U125G | -2.96
141 | G42U U125A | -1.61
142 | A43G A108G | -4.26
143 | A43U U59A G60U | -1.17
144 | G42U G71A A100U | -4.8

Row | Variant | polymerase ribozyme fitness (log ratio)
145 | A43G G69C A90C | -2.1
146 | A43U C62G U112G G113C G122U | -6.69
147 | G42U G58C U87C | -0.174
148 | A43U G93A A119C G120A | -2.58
149 | A43C G47U G52A C56U | -4.62
150 | A43C C115G | -3.94
151 | A43C G61U G117A | -3.52
152 | G42U G47C C49G | -2.84
153 | A43U G93U U112A G127C | -2.82
154 | A43C C56U C79G | -5.29
155 | A43U G135U | -0.971
156 | G42U G47A G69A | -4.71
157 | A43C A50C C86U C89A | -4.9
158 | A43U A74U C104U C115U | -3.23
159 | G42U G69U C115A | -1.45
160 | A43G G52U | -2.44
161 | A43U G69C C115A C124U | -3.09
162 | A43U G45A U96A A108G C123G | -4.02
163 | G42U U109G | -5.53
164 | A43C G47A C56U G57A C62U A103C | -6.45
165 | A43C U92G C101A U132A | -4.9
166 | G42U G71C | -3.19
167 | A43U A46C C115U U116C | -2.39
